For the assay, the target named is recombinant full-length HSP70 in fusion with N-terminal maltose binding protein (MBP) (UniProt P0DMV8 1-641). The assay is described as follows: SPR. A general note: In SPR one partner is held on a chip, and binding of the other changes the refractive index at the surface.

A word on the Kd: it is the equilibrium constant for the complex coming apart.

Sequence of recombinant full-length HSP70 in fusion with N-terminal maltose binding protein (MBP) (P0DMV8 whole entry, the tested form may be a part): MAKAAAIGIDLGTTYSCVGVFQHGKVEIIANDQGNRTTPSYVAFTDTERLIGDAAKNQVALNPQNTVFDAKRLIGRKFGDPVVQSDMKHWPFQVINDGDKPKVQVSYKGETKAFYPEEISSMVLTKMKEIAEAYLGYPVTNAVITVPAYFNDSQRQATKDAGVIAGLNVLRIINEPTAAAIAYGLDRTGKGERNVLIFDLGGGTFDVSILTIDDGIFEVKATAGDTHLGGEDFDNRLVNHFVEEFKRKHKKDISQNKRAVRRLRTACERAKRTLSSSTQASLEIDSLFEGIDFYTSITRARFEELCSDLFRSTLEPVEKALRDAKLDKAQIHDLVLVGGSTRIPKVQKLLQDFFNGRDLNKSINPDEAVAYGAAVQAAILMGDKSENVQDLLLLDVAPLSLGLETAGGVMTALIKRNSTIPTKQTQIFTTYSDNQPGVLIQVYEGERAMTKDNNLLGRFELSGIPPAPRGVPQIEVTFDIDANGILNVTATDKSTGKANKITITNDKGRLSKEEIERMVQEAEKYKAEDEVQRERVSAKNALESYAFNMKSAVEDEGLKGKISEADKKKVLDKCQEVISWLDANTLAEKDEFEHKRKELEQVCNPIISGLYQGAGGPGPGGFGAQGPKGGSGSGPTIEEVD

B1: NS5A domain I (domain or fragment)
chain: SGSWLRDIWDWICEVLSDFKTWLKAKLMPQLPGIPFVSCQRGYRGVWRGDGIMHTRCHCGAEITGHVKNGTMRIVGPRTCKNMWSGTFFINAYTTGPCTPLPAPNYKFALWRVSAEEYVEIRRVGDFHYVSGMTTDNLKCPCQIPSPEFFTELDGVRLHRFAPPCKPLLREEVSFRVGLHEYPVGSQLPCEPEPDVAVLTSMLTDPSHITAEA
For B1, the Kd came out at 316 nM.

Values taken from PMC4284078 (Virology, 2014).
